Legend:
[1] = target: CD81(ECD)-ALP conjugate (human; bovine); test: HI-1000 capture immunoassay; calibrator C3, 55.20 mU/L; run 1
[2] = target: CD81(ECD)-ALP conjugate (human; bovine); test: HI-1000 capture immunoassay; calibrator C2, 20 ng/mL; run 3
[3] = target: CD81(ECD)-ALP conjugate (human; bovine); test: HI-1000 capture immunoassay; calibrator C5, 883.16 mU/L; run 3
[4] = target: CD81(ECD)-ALP conjugate (human; bovine); test: HI-1000 capture immunoassay; calibrator C3, 55.20 mU/L; mean of 3
[5] = target: CD81(ECD)-ALP conjugate (human; bovine); test: HI-1000 capture immunoassay; calibrator C3, 100 ng/mL; run 3
[6] = target: CD81(ECD)-ALP conjugate (human; bovine); test: HI-1000 capture immunoassay; calibrator C1, 4 ng/mL; run 2
[7] = target: CD81(ECD)-ALP conjugate (human; bovine); test: HI-1000 capture immunoassay; calibrator C2, 20 ng/mL; mean of 3
[8] = target: CD81(ECD)-ALP conjugate (human; bovine); test: HI-1000 capture immunoassay; calibrator C4, 500 ng/mL; run 1
[9] = target: CD81(ECD)-ALP conjugate (human; bovine); test: HI-1000 capture immunoassay; calibrator C3, 100 ng/mL; run 1
[10] = target: CD81(ECD)-ALP conjugate (human; bovine); test: HI-1000 capture immunoassay; calibrator C3, 55.20 mU/L; run 2
[11] = target: CD81(ECD)-ALP conjugate (human; bovine); test: HI-1000 capture immunoassay; calibrator C5, 2500 ng/mL; run 2
[12] = target: CD81(ECD)-ALP conjugate (human; bovine); test: HI-1000 capture immunoassay; calibrator C5, 2500 ng/mL; run 1
[13] = target: CD81(ECD)-ALP conjugate (human; bovine); test: HI-1000 capture immunoassay; calibrator C5, 883.16 mU/L; run 1
[14] = target: CD81(ECD)-ALP conjugate (human; bovine); test: HI-1000 capture immunoassay; calibrator C2, 20 ng/mL; run 1
[15] = target: CD81(ECD)-ALP conjugate (human; bovine); test: HI-1000 capture immunoassay; calibrator C4, 500 ng/mL; run 3
[16] = target: CD81(ECD)-ALP conjugate (human; bovine); test: HI-1000 capture immunoassay; calibrator C5, 883.16 mU/L; run 2
[17] = target: CD81(ECD)-ALP conjugate (human; bovine); test: HI-1000 capture immunoassay; calibrator C2, 13.80 mU/L; run 1
[18] = target: CD81(ECD)-ALP conjugate (human; bovine); test: HI-1000 capture immunoassay; calibrator C1, 4 ng/mL; run 3
[19] = target: CD81(ECD)-ALP conjugate (human; bovine); test: HI-1000 capture immunoassay; calibrator C2, 13.80 mU/L; run 2
[20] = target: CD81(ECD)-ALP conjugate (human; bovine); test: HI-1000 capture immunoassay; calibrator C2, 13.80 mU/L; mean of 3
[21] = target: CD81(ECD)-ALP conjugate (human; bovine); test: HI-1000 capture immunoassay; calibrator C4, 500 ng/mL; mean of 3
[22] = target: CD81(ECD)-ALP conjugate (human; bovine); test: HI-1000 capture immunoassay; calibrator C4, 220.80 mU/L; mean of 3
[23] = target: CD81(ECD)-ALP conjugate (human; bovine); test: HI-1000 capture immunoassay; calibrator C2, 13.80 mU/L; run 3
[24] = target: CD81(ECD)-ALP conjugate (human; bovine); test: HI-1000 capture immunoassay; calibrator C4, 220.80 mU/L; run 2
[25] = target: CD81(ECD)-ALP conjugate (human; bovine); test: HI-1000 capture immunoassay; calibrator C4, 500 ng/mL; run 2
[26] = target: CD81(ECD)-ALP conjugate (human; bovine); test: HI-1000 capture immunoassay; calibrator C4, 220.80 mU/L; run 1
[27] = target: CD81(ECD)-ALP conjugate (human; bovine); test: HI-1000 capture immunoassay; calibrator C1, 4 ng/mL; run 1
[28] = target: CD81(ECD)-ALP conjugate (human; bovine); test: HI-1000 capture immunoassay; calibrator C2, 20 ng/mL; run 2
[29] = target: CD81(ECD)-ALP conjugate (human; bovine); test: HI-1000 capture immunoassay; calibrator C1, 3.45 mU/L; run 1
[30] = target: CD81(ECD)-ALP conjugate (human; bovine); test: HI-1000 capture immunoassay; calibrator C5, 2500 ng/mL; run 3
[31] = target: CD81(ECD)-ALP conjugate (human; bovine); test: HI-1000 capture immunoassay; calibrator C1, 4 ng/mL; mean of 3
[32] = target: CD81(ECD)-ALP conjugate (human; bovine); test: HI-1000 capture immunoassay; calibrator C1, 3.45 mU/L; run 3
[33] = target: CD81(ECD)-ALP conjugate (human; bovine); test: HI-1000 capture immunoassay; calibrator C1, 3.45 mU/L; mean of 3
[34] = target: CD81(ECD)-ALP conjugate (human; bovine); test: HI-1000 capture immunoassay; calibrator C5, 883.16 mU/L; mean of 3
[35] = target: CD81(ECD)-ALP conjugate (human; bovine); test: HI-1000 capture immunoassay; calibrator C3, 55.20 mU/L; run 3
[36] = target: CD81(ECD)-ALP conjugate (human; bovine); test: HI-1000 capture immunoassay; calibrator C3, 100 ng/mL; run 2
[37] = target: CD81(ECD)-ALP conjugate (human; bovine); test: HI-1000 capture immunoassay; calibrator C4, 220.80 mU/L; run 3
[38] = target: CD81(ECD)-ALP conjugate (human; bovine); test: HI-1000 capture immunoassay; calibrator C3, 100 ng/mL; mean of 3
[39] = target: CD81(ECD)-ALP conjugate (human; bovine); test: HI-1000 capture immunoassay; calibrator C5, 2500 ng/mL; mean of 3
[40] = target: CD81(ECD)-ALP conjugate (human; bovine); test: HI-1000 capture immunoassay; calibrator C1, 3.45 mU/L; run 2

CD81(ECD)-ALP conjugate (human; bovine), sequence (chain, as listed by the source, chain 1 of 2): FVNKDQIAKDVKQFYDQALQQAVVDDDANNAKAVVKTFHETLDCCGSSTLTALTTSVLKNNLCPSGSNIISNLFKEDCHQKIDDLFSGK
CD81(ECD)-ALP conjugate (human; bovine), sequence (P19111 20-506, chain 2 of 2): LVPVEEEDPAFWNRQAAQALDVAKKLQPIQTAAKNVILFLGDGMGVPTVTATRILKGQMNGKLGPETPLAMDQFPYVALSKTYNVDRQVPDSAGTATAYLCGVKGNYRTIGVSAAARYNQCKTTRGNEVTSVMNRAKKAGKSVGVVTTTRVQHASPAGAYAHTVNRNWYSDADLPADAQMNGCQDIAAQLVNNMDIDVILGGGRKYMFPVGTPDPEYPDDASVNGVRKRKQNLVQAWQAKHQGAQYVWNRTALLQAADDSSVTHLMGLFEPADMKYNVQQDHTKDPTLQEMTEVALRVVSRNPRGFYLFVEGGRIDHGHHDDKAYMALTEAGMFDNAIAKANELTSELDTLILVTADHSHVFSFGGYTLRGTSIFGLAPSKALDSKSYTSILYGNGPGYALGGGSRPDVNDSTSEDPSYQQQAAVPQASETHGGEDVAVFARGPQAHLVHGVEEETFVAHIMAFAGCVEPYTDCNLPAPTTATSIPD

Count value [1]: 20900 count | Count value [2]: 4640 count | Count value [3]: 494000 count | Count value (av) [4]: 20700 count | Count value [5]: 19600 count | Count value [6]: 1300 count | Count value (av) [7]: 4500 count | Count value [8]: 101000 count | Count value [9]: 20000 count | Count value [10]: 20400 count | Count value [11]: 496000 count | Count value [12]: 498000 count | Count value [13]: 503000 count | Count value [14]: 4480 count | Count value [15]: 99600 count | Count value [16]: 496000 count | Count value [17]: 4650 count | Count value [18]: 1280 count | Count value [19]: 4600 count | Count value (av) [20]: 4620 count | Count value (av) [21]: 100000 count | Count value (av) [22]: 102000 count | Count value [23]: 4610 count | Count value [24]: 99500 count | Count value [25]: 100000 count | Count value [26]: 105000 count | Count value [27]: 1270 count | Count value [28]: 4380 count | Count value [29]: 1380 count | Count value [30]: 486000 count | Count value (av) [31]: 1280 count | Count value [32]: 1340 count | Count value (av) [33]: 1380 count | Count value (av) [34]: 498000 count | Count value [35]: 20900 count | Count value [36]: 20000 count | Count value [37]: 102000 count | Count value (av) [38]: 19900 count | Count value (av) [39]: 494000 count | Count value [40]: 1430 count
Substance: anti-CD81 antibody (Clone: 5A6)

Source: US20240118272A1
